The supplement of paper PMC7125110
± gives the standard error. Variants at the floor of the assay were thinned out.

B1: glmS ribozyme (parent)
chain: AUAAAAGCGCCAGAACUACAGAAAUGUAGUUGACGAGGAGGAGGUUUAUCGAAUUUUCGGCGGAUGCCUCCAAA

What was measured:
Conditions in all cases: with glucosamine-6-phosphate
glucosamine-6-phosphate [1] = variants of: B1; assay: self-cleavage kobs at 640 uM GlcN6P; higher = faster cleavage; RNA array
Method in brief: (§1)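 On sequenced MiSeq chips, barcoded ribozyme variants were made in situ by E. coli RNA polymerase and followed at 37 °C through a hybridised Cy3 probe. Glucosamine-6-phosphate was flowed in at 40 μM to 10 mM in HEPES/KCl/Mg(OAc)2 buffer. Exponential fits to normalised per-tile medians gave kobs, and weighted Michaelis–Menten fits gave kcat and KM.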

glucosamine-6-phosphate [2] = variants of: B1; assay: self-cleavage kobs at 2500 uM GlcN6P; higher = faster cleavage; RNA array
Method in brief: as §1

glucosamine-6-phosphate [3] = variants of: B1; assay: self-cleavage kobs at 10000 uM GlcN6P; higher = faster cleavage; RNA array
Method in brief: as §1

Variant | self-cleavage kobs at 640 uM GlcN6P (glucosamine-6-phosphate [1]) [s⁻¹] | self-cleavage kobs at 2500 uM GlcN6P (glucosamine-6-phosphate [2]) [s⁻¹] | self-cleavage kobs at 10000 uM GlcN6P (glucosamine-6-phosphate [3]) [s⁻¹]
A33U G41C A52C A53U A64G U65G C70G | < 1e-05 | – | –
G29U A36U U69G | 0.00026 ± 0.00011 | 0.000178 ± 7.3e-05 | –
A6U A39G A48G | < 1e-05 | < 1e-05 | –
G7U C68G | 0.000534 ± 0.00015 | – | –
G9A A36U U56G | < 1e-05 | – | –
C11G A39U U45C U49A C50U G62C U65G | < 1e-05 | – | –
G9C A12C C58U | < 1e-05 | < 1e-05 | –
U30C G35A C71A | < 1e-05 | – | –
U31G C70A | 0.000129 ± 2.6e-05 | 9.72e-05 ± 2.7e-05 | 0.000372 ± 0.00014
G9A G13A A48G | < 1e-05 | < 1e-05 | –
G37A A64U C71U | < 1e-05 | < 1e-05 | –
G9U A33C G41U G62C | < 1e-05 | < 1e-05 | –
C34U C58A G59U | < 1e-05 | < 1e-05 | –
A12G U55G G62C | < 1e-05 | – | < 1e-05
G7A G44U C67G | < 1e-05 | – | –
G7U G13A A15C A36U G43A C67U | < 1e-05 | < 1e-05 | –
A14C U56G C67G | 0.000636 ± 0.00024 | 0.00165 ± 0.00073 | 0.0219 ± 0.0084
G35A G40U G43U G59A C67G | < 1e-05 | < 1e-05 | –
C8U A14G G32U A33C | < 1e-05 | – | –
A39U A48U A53C | < 1e-05 | – | –
G29C U56A C58A G63U | < 1e-05 | < 1e-05 | –
A15U U31G A48U | < 1e-05 | – | –

Variant | self-cleavage kobs at 640 uM GlcN6P (glucosamine-6-phosphate [1]) [s⁻¹] | self-cleavage kobs at 2500 uM GlcN6P (glucosamine-6-phosphate [2]) [s⁻¹] | self-cleavage kobs at 10000 uM GlcN6P (glucosamine-6-phosphate [3]) [s⁻¹]
G7C A42U A53U C67G | < 1e-05 | – | –
G7C G26U G29U U57C A64U U65C | < 1e-05 | – | –
C10A G32C C34U | < 1e-05 | – | –
G44U G51A C68U | < 1e-05 | < 1e-05 | –
A14C C34G A36C G59C | < 1e-05 | – | –
A39G U45G C71U | 0.00169 ± 0.0004 | 0.0041 ± 0.0017 | –
C11G U49C C68G U69C | < 1e-05 | – | –
G38U C50G G62U | 0.000714 ± 0.00023 | 6.98e-05 ± 2e-05 | –
A12U G13A G29A U45G | < 1e-05 | < 1e-05 | –
A12G A14G U57A C68A U69G | 0.000246 ± 8e-05 | 7.01e-05 ± 3.5e-05 | –
A33U A52G C68G C71G | 0.000207 ± 7.3e-05 | 9.93e-05 ± 4e-05 | –
A6G A33G U47A | < 1e-05 | – | –
G13A A39G A52C | < 1e-05 | – | –
A14C A64U C67U | < 1e-05 | – | –
U46A C70G | 0.000146 ± 4.1e-05 | 0.00037 ± 0.00011 | 0.000156 ± 3.1e-05
A12G A52G G62U | < 1e-05 | < 1e-05 | –
C11U U31A A53U C70G | 0.000209 ± 6.9e-05 | 0.000251 ± 8.4e-05 | –
G29U G35A U45G | < 1e-05 | – | –
U31A A33U U55A C58G | < 1e-05 | < 1e-05 | –
G41U U55G A64G | 8.52e-05 ± 3.1e-05 | 0.000147 ± 4.4e-05 | –
A15U C34U G41U C71U | < 1e-05 | – | –
A36C A48U U54G G60U G63U A64G | < 1e-05 | – | –

Variant | self-cleavage kobs at 640 uM GlcN6P (glucosamine-6-phosphate [1]) [s⁻¹] | self-cleavage kobs at 2500 uM GlcN6P (glucosamine-6-phosphate [2]) [s⁻¹] | self-cleavage kobs at 10000 uM GlcN6P (glucosamine-6-phosphate [3]) [s⁻¹]
A6G G9A G41U A42U C70A | < 1e-05 | < 1e-05 | –
C8U C10U U45C | < 1e-05 | < 1e-05 | –
C11G G44A U55A | < 1e-05 | < 1e-05 | –
A12C U31A U57A | 4.6e-05 ± 2.3e-05 | 4.93e-05 ± 1.6e-05 | –
A36C G43U U45G U46C U65G | < 1e-05 | < 1e-05 | –
C34A G59U G60A G63U | < 1e-05 | – | –
A14U U31A G32U C67U | 5.86e-05 ± 2.4e-05 | 0.000276 ± 7.5e-05 | –
C34U G38A A42G | < 1e-05 | – | –
A14U C34U G35A C71U | < 1e-05 | – | –
A14U U46A C68U | 4.63e-05 ± 1.7e-05 | 0.000119 ± 2e-05 | –
A36G U45A C61U U69G C70A | < 1e-05 | < 1e-05 | –
G43C C61U G62A | < 1e-05 | – | –
G32U C34G G41C A53U A64C U65G | < 1e-05 | < 1e-05 | –
G7U C58G C61G | 0.000789 ± 0.00019 | – | –
C58A C70A C71A | 8.13e-05 ± 2.5e-05 | 0.000492 ± 0.00012 | –
G38C U57G | < 1e-05 | – | –
A12G U31A | 5.56e-05 ± 9.9e-06 | 7.25e-05 ± 1.1e-05 | 0.000227 ± 2.4e-05
C11U G43A U46A U55G U65G G66A | < 1e-05 | < 1e-05 | –
C10G A14C G44C G51C | < 1e-05 | – | –
A15U U30A G32C U56C U57C C61G | < 1e-05 | < 1e-05 | –
